Results reported in patent publication US20030165919A1, “Method for the analysis of exogenic and endogenic cell activiation based on measuring the aggregation of receptors” (priority 2000, published 2003).

Assays:
Assay type in all cases: cell-based
[1] = biological target: T1, CD11b and CD14 (Homo sapiens, UniProt P08571); assay: FRET flow cytometry: co-assembly of CD11b and CD14 on monocytes; conditions: human monocytes in whole blood, stimulation with the substance alone, 37° C. 15 minutes
T1 construct: endogenous in cells; host or cells: human monocytes in heparinised whole blood (healthy donors and patients)
T1 sequence (P08571 20-345 limits assumed): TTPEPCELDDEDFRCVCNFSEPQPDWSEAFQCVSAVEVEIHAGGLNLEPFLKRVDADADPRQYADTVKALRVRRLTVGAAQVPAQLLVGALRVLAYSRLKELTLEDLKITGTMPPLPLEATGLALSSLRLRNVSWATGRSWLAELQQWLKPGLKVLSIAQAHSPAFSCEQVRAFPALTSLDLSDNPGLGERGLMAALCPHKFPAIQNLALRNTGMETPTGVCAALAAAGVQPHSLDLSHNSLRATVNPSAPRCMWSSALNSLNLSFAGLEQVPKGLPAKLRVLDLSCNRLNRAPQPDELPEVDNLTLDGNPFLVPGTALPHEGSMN
Method: (§1) Aliquots […] of whole blood were incubated with the following stimulatory compounds at 37° C. for 15 minutes: LPS of Salmonella minnesota (0.1-10 nM, Mw 10 kDa), ceramide (primarily stearic acid and nervonic acid) and sulfogalactosyl ceramide (SG-cer, […]), both of which tested LPS free in the LAL assay (Cer, 1 nM-5.5 mM), lysophosphatidyl choline (lyso-PC, 10 mM), phorbol-12-myristate-13-acetate (PMA, 1 mM), N-formyl-L-methionyl-L-leucyl-L-phenyl alamine (fMLP, 1 mM), PE, PC, PI and PS liposomes (10 mm) which had been prepared as described above. All reagents were obtained from Sigma. In addition, the cells were stimulated with HPS70 (7 nM), dHSP70 (7 nM) and SG-cer+dHSP70 (40 nM+7 nM). After incubation, the cells were washed with cold PBS containing 0.1% of NaN3. The synthetic LPS antagonist lipid IVa (“compound-406”, 1-400 ng/ml) and lipid A derived from E. coli (1-100 ng/ml) were made available by courtesy of Dr. S. Kusumoto. The cells were pre-incubated with the LPS antagonist at 37° C. for 15 minutes and then stimulated with LPS at the same temperature (without washing).
(§2) Whole blood cells which had been stimulated or washed ex vivo […] were incubated on ice for 15 minutes with saturation concentrations of monoclonal fluorochrom-conjugated or biotinylated antibodies. The monoclonal antibodies CD11a (clone 25.3.1), CD16a (clone 3G8). CD18 (clone 7E4), CD14 (clone RMO52), CD33 (clone My9-RD1). CD81 (clone Js64) were obtained as R-phyco-erythrine (R-PE) conjugates and CD25 (clone B1.49.9) in biotinylated form from Coulter/Immunotech (Krefeld, Germany). CD11b (clone d12), CD11c (clone S-HCL-3), CD36 (clone CB38), CD47 (clone B6H12), CD81 (clone JS-81) and (Cd55 (clone IA10) in biotinylated form and Streptavidin-R-PE were purchased from Becton/Dickinson/Pharningen (Heidelberg, Germany) CD18 (clone IB4) in biontinylated form and CD40 (clone EA-5) as R-PE conjugate were obtained from Alexis (Grünberg, Germany) and CD14 (clones ×8 and Uchml) and CD3 (clone Cris-7) in biotinylated form and Streptavidin-Cy5 (Sa-Cy5) from Dianova (Hamburg, Germany), CD32 (clone C1KM5) and CD64 (clone 10.1) were obtained as R-PE conjugates from Caltag (Burlingame, U.S.A.) and CD91 (clone 8G1) in biotinylated form from Proen (Heidelberg, Germany). A monoclonal anti-TLRA antibody (clone HTA125) was kindly provided by Dr. Kensuke. Since no energy transfer between the antibodies directed against the CD14/CD11a and CD14/CD11c pairs was detectable either on resting or on stimulated cells, these antibody combinations were not characterised further.
Lysis of erythrocytes and washing were carried out as described (Rothe et al., Thromb. Vasc. Biol. 16 (1996), 1437-1447). After the last washing step, the samples were divided and part of each sample incubated with a saturating amount of SA-Cy5 on ice for 15 minutes and washed before measuring.
For energy transfer experiments, […] aliquots of whole blood were treated with cholesterol/methyl cyclodextrine (C/C) (100 mg/ml/4.6 mg/ml) or 2-hydroxypropyl-β-cyclodextrine (0.15 mg/ml) at 37° C. for 30 minutes and then stimulated further with LPS (4 nM) or ceramide (40 nM) as described above. The energy transfer between CD14 and CD11b was measured.
A “FACSCalibur” flow cytometer (Becton Dickinson) equipped with an air-cooled 15 mW argon laser (excitation wavelength 488 nm), a diode laser (excitation wavelength […]) and standard filters [channel 1 (FITC): 530/30 nm band pass filter; channel 2 (R-PE being used as donor dye); 585/47 nm band pass filter; channel 3 (PerCP): pass having a length of >670 nm; and channel 4 (Cy5being used as recipient dye): 661/16 nm bad pass filter] was used. The Cellquest software (Becton Dickinson) was used for the measurements. […] Measurement was conducted without compensation. 50,000 leukocytes were required in the “list” modus, forward scattering (FSC) being used as a trigger signal. […]

[2] = biological target: T2, receptor cluster comprising CD14 (Homo sapiens, UniProt P08571); assay: FRET with a series of antibody pairs: receptor cluster comprising CD14 on monocytes; conditions: stimulation of the cells as control
T2 construct: endogenous in cells; host or cells: human monocytes in whole blood
T2 sequence (P08571 20-345 limits assumed): T1 sequence (P08571 20-345 limits assumed)
Method: as §1
(§3) Whole blood cells which had been stimulated or washed ex vivo […] were incubated on ice for 15 minutes with saturation concentrations of monoclonal fluorochrom-conjugated or biotinylated antibodies. The monoclonal antibodies CD11a (clone 25.3.1), CD16a (clone 3G8). […]

[3] = biological target: T3, CD64/CD14 (Uchm1) (Homo sapiens, UniProt P08571); assay: FRET co-assembly of CD64 with CD14 on monocytes; conditions: LPS 4 nM, ceramide 40 nM, LTA 1 μg/ml, HSP70 7 nM; mean ± SD of 10 experiments; >5% = positive transfer
T3 construct: endogenous in cells; host or cells: human monocytes in whole blood
T3 sequence (P08571 20-345 limits assumed): T1 sequence (P08571 20-345 limits assumed)
Method: as §1, §3

[4] = biological target: T4, CD55/CD14 (Uchm1) (Homo sapiens, UniProt P08571); assay: FRET co-assembly of CD55 with CD14 on monocytes; conditions: LPS 4 nM, ceramide 40 nM, LTA 1 μg/ml, HSP70 7 nM; mean ± SD of 10 experiments; >5% = positive transfer
T4 construct: endogenous in cells; host or cells: human monocytes in whole blood
T4 sequence (P08571 20-345 limits assumed): T1 sequence (P08571 20-345 limits assumed)
Method: as §1, §3

[5] = biological target: T5, CD81/CD14 (×8) (Homo sapiens, UniProt P08571); assay: FRET co-assembly of CD81 with CD14 on monocytes; conditions: LPS 4 nM, ceramide 40 nM, LTA 1 μg/ml, HSP70 7 nM, mean ± SD of 10 experiments
T5 construct: endogenous in cells; host or cells: human monocytes in whole blood (donors; also sepsis and CAD patients)
T5 sequence (P08571 20-345 limits assumed): T1 sequence (P08571 20-345 limits assumed)
Method: as §1
as §2, with “further. […]” for “further.”

[6] = biological target: T6, CD32/CD14 (Uchm1) (Homo sapiens, UniProt P08571); assay: FRET co-assembly of CD32 with CD14 on monocytes; conditions: LPS 4 nM, ceramide 40 nM, LTA 1 μg/ml, HSP70 7 nM; mean ± SD of 10 experiments; >5% = positive transfer
T6 construct: endogenous in cells; host or cells: human monocytes in whole blood
T6 sequence (P08571 20-345 limits assumed): T1 sequence (P08571 20-345 limits assumed)
Method: as §1, §3

[7] = biological target: T7, CD36/CD14 (×8) (Homo sapiens, UniProt P08571); assay: FRET co-assembly of CD36 with CD14 on monocytes; conditions: LPS 4 nM, ceramide 40 nM, LTA 1 μg/ml, HSP70 7 nM; mean ± SD of 10 experiments; >5% = positive transfer
T7 construct: endogenous in cells; host or cells: human monocytes in whole blood
T7 sequence (P08571 20-345 limits assumed): T1 sequence (P08571 20-345 limits assumed)
Method: as §1, §3

[8] = biological target: T8, TLR-4/CD14 (×8) (Homo sapiens, UniProt P08571); assay: FRET co-assembly of TLR-4 with CD14 on monocytes; conditions: LPS 4 nM, ceramide 40 nM, LTA 1 μg/ml, HSP70 7 nM; mean ± SD of 10 experiments; >5% = positive transfer
T8 construct: endogenous in cells; host or cells: human monocytes in whole blood
T8 sequence (P08571 20-345 limits assumed): T1 sequence (P08571 20-345 limits assumed)
Method: as §1, §3

[9] = biological target: T9, CD18(7E4)/CD14 (×8) (Homo sapiens, UniProt P08571); assay: FRET co-assembly of CD18 with CD14 on monocytes; conditions: LPS 4 nM, ceramide 40 nM, LTA 1 μg/ml, HSP70 7 nM; mean ± SD of 10 experiments; >5% = positive transfer
T9 construct: endogenous in cells; host or cells: human monocytes in whole blood
T9 sequence (P08571 20-345 limits assumed): T1 sequence (P08571 20-345 limits assumed)
Method: as §1, §3

co-assembly of CD11b and CD14 (energy transfer between monoclonal antibodies) [1]	energy transfer CD64/CD14 (Uchm1) [3] [%]	energy transfer CD55/CD14 (Uchm1) [4] [%]	energy transfer CD81 (JS-81)/CD14 (×8) ([5]; CD81 clone JS-81) [%]	energy transfer CD81 (Js64)/CD14 (×8) ([5]; CD81 clone Js64) [%]	energy transfer CD32/CD14 (Uchm1) [6] [%]	energy transfer CD36/CD14 (×8) [7] [%]	energy transfer TLR-4/CD14 (×8) [8] [%]	energy transfer CD18(7E4)/CD14 (×8) [9] [%]	Compound	energy transfer between any of the antibody pairs [2]
induces clustering of CD11b and CD14	10.1 ± 1.5	6.0 ± 0.5	1.0 ± 0.1	3.8 ± 2.5	5.3 ± 2.1	8.2 ± 1.8	5.4 ± 0.6	6.0 ± 2.1	HSP70: Heat shock protein 70 obtained from Stressgen	
does not induce any receptor complex									dHSP70: HSP70 delipidated in ethanol/diethyl ether	

Compound	co-assembly of CD11b and CD14 (energy transfer between monoclonal antibodies) [1]	energy transfer CD64/CD14 (Uchm1) [3] [%]	energy transfer CD55/CD14 (Uchm1) [4] [%]	energy transfer CD81 (JS-81)/CD14 (×8) ([5]; CD81 clone JS-81) [%]	energy transfer CD81 (Js64)/CD14 (×8) ([5]; CD81 clone Js64) [%]	energy transfer CD32/CD14 (Uchm1) [6] [%]	energy transfer CD36/CD14 (×8) [7] [%]	energy transfer TLR-4/CD14 (×8) [8] [%]	energy transfer CD18(7E4)/CD14 (×8) [9] [%]	energy transfer between any of the antibody pairs [2]
CSCC[C@H](NC=O)C(=O)N[C@@H](CC(C)C)C(=O)N[C@@H](Cc1ccccc1)C(=O)O [fMLP, N-formyl-L-methionyl-L-leucyl-L-phenyl alamine]	neither fMLP or PMA showed any effect									did not result in any significant energy transfer
